Assay results reported in US20070010016A1.

Molecular target: Adenovirus 5 receptor (on HeLa cells)
Assay: cell-based or functional assay

Adenovirus 5 fiber protein (from UniProt P11818 1-581)
transduction of HeLa cells with Av1LacZ4 in the presence of competitor (beta-galactosidase positive cells, percent of control): 0.1 to 1 mug/ml
